# T1: Abp1 SH3 (ABP1_YEAST), P15891
# T1 chain: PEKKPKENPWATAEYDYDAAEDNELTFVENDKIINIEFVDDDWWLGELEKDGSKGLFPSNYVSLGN
# Biological target: T1, Abp1 SH3 (ABP1_YEAST), P15891
# Test: SPOT array
row,Binder,"normalised SPOT signal, Boehringer light units (BLU); mean over the file's lines of this peptide"
1,VDRGVGEWYKPDRP [YNL108C 86-99],172
2,VDTFEDEPDKLKP [YGR210C 280-292],93.9
3,VEEYWGKKFEPERP [YJR137C 1184-1197],89.3
4,VEFKKDLEEGPTKP [YML074C 275-288],82
5,VEKINTFKTLPTKP [YDL202W 178-191],385
6,VELVTVRPLDEKP [YJL105W 434-446],20.9
7,VENLGTNVTPPLRP [YPL242C 22-35],64.4
8,VEQSATIPESIKP [YGL238W 669-681],27.7
9,VERNFTDPGDGKP [YMR238W 135-147],73
10,VEVDMSLPENQKP [YBR111C 165-177],20.2
11,VEYDYVDPRQLKP [YGL236C 383-395],51.9
12,VFKDPEGDYKPIKP [YLR084C 1187-1200],-0
13,VFSGVTNQPSPIRP [YER129W 661-674],98.3
14,VFSKMAKKLLPYKP [YBR270C 205-218],896
15,VFYENNSPEKEKP [YOR129C 465-477],118
16,VGGNPDIPSLLKP [YHR080C 52-64],87.4
17,VGNYAYGAGHPMKP [YNL330C 29-42],97.4
18,VIAILNPEVLPWRP [YIL150C 263-276],78.9
19,VIAVNDNPVVPRP [YOR324C 73-85],140
20,VIIEFSSPNIAKP [YDR341C 145-157],38.1

row,Binder,"normalised SPOT signal, Boehringer light units (BLU); mean over the file's lines of this peptide"
1,VILDARLPKNVKP [YDR107C 200-212],99.6
2,VIRNFRFVGLPKKP [YPR155C 202-215],145
3,VITPSQLPNSVRP [YFL036W 250-262],214
4,VIWQATTPVDVKP [YLR381W 153-165],57.5
5,VKDYWEHPQAYKP [YMR250W 428-440],12.6
6,VLALNNLSQDPPKP [YJR033C 294-307],105
7,VLSTLYQPNGFRP [YHR194W 300-312],54.5
8,VLDVSHSKYIPLKP [YGL017W 311-324],51.1
9,VLNTRESPDSLKP [YGR109W-B 421-433],103
10,VLPVKIQPPLLRP [YPR175W 10-22],149
11,VLRLTDIEKTPQRP [YFL001W 315-328],122
12,VLVTEKFPEVMKP [YMR208W 259-271],87.4
13,VMIIFTIPETYKP [YHR048W 242-254],96
14,VNIEDITEPKPDKP [YDR363W 93-106],103
15,VNNEIHYYYPPVKP [YDR321W 235-248],116
16,VNPIGITPLGPKP [YMR251W 349-361],62.5
17,VNYVDYYPLPDKP [YGL137W 187-199],40.6
18,VPKSTHDPSLAKP [YER167W 235-247],82.5
19,VPLQIVSPQSNKP [YDL140C 507-519],20.8
20,VPPTQSLPNGKKP [YER035W 35-47],79.3

row,Binder,"normalised SPOT signal, Boehringer light units (BLU); mean over the file's lines of this peptide"
1,VQMRMDPNQQPEKP [YDR258C 83-96],247
2,VQVQTTTSILPLKP [YGR188C 415-428],69.6
3,VRDAYEKTLPPKRP [YKL032C 424-437],416
4,VRRKPHSPNKKKP [YDR223W 11-23],98
5,VSFDLKTPLRAKP [YMR092C 479-491],461
6,VSHGDLNLINPMRP [YOL042W 270-283],107
7,VSHYHYGVKHPMKP [YGL194C 36-49],39.9
8,VSLHLVRKVAPTKP [YHR070W 474-487],5240
9,VSRFYQIPGTHRP [YBR235W 2-14],326
10,VSSQPSLPRTLKP [YPL019C 812-824],214
11,VSSSEIESVEPLKP [YMR219W 1122-1135],56.1
12,VSSSSTIPVLPKP [YJL201W 369-381],77.3
13,VSSTGSKSGPPPRP [YNL138W 345-358],793
14,VTDFNYTPSHQKP [YIL106W 99-111],79
15,VTDLIKFPLMDKP [YNR011C 599-611],88.1
16,VTKRPATSTPPRKP [YJR043C 299-312],812
17,VVDGNLAHETPVKP [YGR188C 429-442],93
18,VVDIEVPMEYPFKP [YDR177W 53-66],40.3
